The data set deals with the molecule itself. Nature of the data set: SEC.

B1: CeLGR-ΔC (C. elegans leucine-rich-repeat-containing GPCR truncated after helix 8 at residue 712) (receptor)
chain: QNALSLAQTKHSCMALKAEDGEGCTCKQTKRYGQPECCCMGLIVSQLPTNLTADVGYLYLHNTSISVITPNFFDKFPSIRELEIDNSAHLEHIDGSSLSVLSKLRKLSVVKCPNLREISGKLLVNNTRIQNVILKNNGLATMPSLRMTDAHHVLLDRIDLSGNKIKFISDSKVRNVKARTVVLSENKLIEISGYAFTESQFLKLKLNNNPDLRSLSVDAFKNMAGLQTLDLSHTSIDTLPINGLKKLKTLILNDVPTLKSLPSVLSFTDLETAHFTYPHHCCLFKYVDDVTMNDNGKYQRNAKEIHKRICDKREQQKVARRRKRETSGIDFLDMLLKEWTDNSTYTGPDDADDDELPPFVEIGAEPCQSIGEEVQKYYSNITCYPQPDALNPCENIVGYPFLRIAVWVVCLAAIVGNIIVWALLGIVYEKRMRMHYLYMINMSVADMVTGIYLAVLAIADAKMSDEYYRHAVWWQTGWGCRAAGFLAVFASELGIISMFLIAFEMSYNTRQSFRGRRLSPKVGVLLMIGGWLFAIIMAILPWFDVSSYSESSVCLPLRAATIFDKSYLIFGLSFNFLAFAAMALSYGFIVKMLKENETREEDRALITKMTVLVVTDLICWFPTLFFGFTATIGFPLLSLSSAKFVLVFFFPINAFANPFLYVFFTEVIQHRVRSKTLPVIRR
In the case of B1, the “stoichiometry N” value turned out to be 2.

The record behind these values is publication PMC12753827 (Nature Communications, 2025).
